Earlier results, collected in PMC7156326.

Target: GATAD2A coiled-coil (Homo sapiens) (UniProt Q86YP4)
Chain of UniProt Q86YP4 (Q86YP4 137-178): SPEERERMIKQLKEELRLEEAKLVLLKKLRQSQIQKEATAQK

In the case of MBD2 coiled-coil (from UniProt Q9UBB5), the Kd is given as 50 nM.
